# From article PMC11205783, “HigA2 (Rv2021c) Is a Transcriptional Regulator with Multiple Regulatory Targets in Mycobacterium tuberculosis”
# B1: Rv0086-40bp (dsDNA)
# DNA 1: CGCCATCGCCGATATCACCGGCGTGATGCGACGGTCGCGG
# DNA 2: CCGCGACCGTCGCATCACGCCGGTGATATCGGCGATGGCG
# B2: Rv0258c-40bp (dsDNA)
# DNA 1: CATGGTGTCAGGATCACCCCGCTGTGATCAAAGATCAAGC
# DNA 2: GCTTGATCTTTGATCACAGCGGGGTGATCCTGACACCATG
# B3: Rv2434c-40bp (dsDNA)
# DNA 1: GGTTCCCATGGGTATCACCTTCGTGATCGCCGGCAGCGTG
# DNA 2: CACGCTGCCGGCGATCACGAAGGTGATACCCATGGGAACC
# B4: Rv1733c-40bp (dsDNA)
# DNA 1: GTGTTGCTGTCGATCACCCCCTCGTGATCGATCACGGTCG
# DNA 2: CGACCGTGATCGATCACGAGGGGGTGATCGACAGCAACAC
# B5: Rv0010c-40bp (dsDNA)
# DNA 1: CAGTGGGGATGAATCACATGCGTGTGATTGAGTGACCAAA
# DNA 2: TTTGGTCACTCAATCACACGCATGTGATTCATCCCCACTG
# B6: Rv2044c-40bp (dsDNA)
# DNA 1: TGTCGCTCACTACATCACCGGCGTGATCTATCCCGCCGGT
# DNA 2: ACCGGCGGGATAGATCACGCCGGTGATGTAGTGAGCGACA
# B7: Rv3396c-40bp (dsDNA)
# DNA 1: TGTGGGGTGTGCATCACCTCCGGGTGATACTGCACCCCGG
# DNA 2: CCGGGGTGCAGTATCACCCGGAGGTGATGCACACCCCACA
# Target: T1, HigA2 (Mycobacterium tuberculosis H37Rv) (UniProt O53467)
# T1 sequence: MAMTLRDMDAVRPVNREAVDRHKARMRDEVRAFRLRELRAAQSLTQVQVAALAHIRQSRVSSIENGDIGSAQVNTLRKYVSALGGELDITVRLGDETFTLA
# Assay: EMSA
# Conditions: EMSA: 20 mM Tris-HCl, 150 mM NaCl, pH 8.0, 37 °C, 5 min, HigA2 1 uM (titrated in Fig 4); agarose or native PAGE. Pull-down: streptavidin beads, 4 °C, PBS …
Molecule,binding signal,binding
higB2 40 bp,5 µM,
CGCTGCTCTTACCCGGAGGAATATCACCCTTGTGTGATATCGCGTATCGCGCTACTCTG (double strand) [seq6],,binds
GGCACAGGCTACTGTTTCAACGGCCCGGGTGCGCAGAGTCCGTCCTCGCCTGCCGGCATTTCCTCGACGGTAGCCCCGTCGCCCGCTGCTCTTACCCGGAGGAATATCACCCTTGTGTGATATCGCGTATCGCGCTACTCTGCGACTCTGTGGGGTGGACGGCGGATGTGGAGCGCATCTCCGCCTGGCTCAACGGCTTGGACCGAGAGACCTACGAATTGGTGTTCGCAGCTATCG (double strand) [seq4],,binds

# Target: T2, HigA2 (Mycobacterium tuberculosis H37Rv, UniProt O53467 1-101)
# T2 sequence: T1 sequence
# Assay: EMSA; essentially complete binding; 1 uM DNA; EMSA: 20 mM Tris-HCl, 150 mM NaCl, pH 8.0, 37 °C, 5 min, HigA2 1 uM (titrated in Fig 4); agarose or native PAGE. Pull-down: streptavidin beads, 4 °C, PBS washes
# Conditions: protein: recombinant; tags: C-terminal 6xHis; chain copies: 2; blunt
row,Molecule,binding signal
1,B1,~20 µM
2,B2,~5 µM
3,B3,~20 µM
4,B4,~8 µM
5,B5,~8 µM
6,B6,~5 µM
7,B7,~8 µM
